Patent US20230357364A1

Target: SARS-CoV-2 spike D614G (pseudovirus) (SARS-CoV-2) (UniProt P0DTC2)
Assay: cell-based or functional assay

Row | Substance | PSV in HeLa-ACE2 cells IC50
1 | REGN10933 (antibody) | 0.009 µg/mL
2 | REGN10987 (antibody) | 0.019 µg/mL
